Measurements reported in patent publication US8034783B2, “Prodomain modulators of ADAM 10” (Biozyme, Inc., priority 2006, dated 2011).
Non-standard residues stand in square brackets, D forms with d. Primed or numbered codes have the meaning given here. *: point of attachment. Fluorescein = fluorescein label attached to the cysteine side chain; Dabcyl′ = CN(C)c1ccc(/N=N/c2ccc(C(=O)*)cc2)cc1; hPhe = N[C@@H](CCc1ccccc1)C(=O)O

What was measured:
ADAM 10 (human) Cat/Dis = molecular target: T1, ADAM 10 (human) Cat/Dis (Homo sapiens, UniProt O14672); assay: Inhibition assay with ADAM10 catalytic/disintegrin construct, fluorescent substrate; type: biochemical
T1 construct: containing the catalytic/disintegrin domains; purchased R & D Systems (Minneapolis, Minn., USA)
T1 sequence (O14672 214-672 limits assumed): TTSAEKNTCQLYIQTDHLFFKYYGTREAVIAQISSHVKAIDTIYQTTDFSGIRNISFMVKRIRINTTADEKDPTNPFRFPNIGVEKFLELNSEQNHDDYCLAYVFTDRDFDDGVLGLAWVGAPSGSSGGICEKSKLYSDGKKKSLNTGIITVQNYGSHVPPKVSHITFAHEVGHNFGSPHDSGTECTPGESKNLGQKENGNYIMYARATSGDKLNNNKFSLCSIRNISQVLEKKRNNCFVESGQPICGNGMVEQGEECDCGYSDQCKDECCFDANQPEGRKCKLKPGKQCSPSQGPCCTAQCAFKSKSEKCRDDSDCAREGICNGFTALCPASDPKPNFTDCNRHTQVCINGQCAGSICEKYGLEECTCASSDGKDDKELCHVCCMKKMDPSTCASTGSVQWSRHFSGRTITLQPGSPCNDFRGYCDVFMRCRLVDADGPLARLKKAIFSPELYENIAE
Protocol: (§1) Inhibition assays with TACE and ADAM 10. Activity of TACE catalytic/disintegrin, TACE catalytic, or ADAM10 catalytic/disintegrin constructs was monitored at 3 minute intervals using the fluorescent substrate, Dabcyl-LAQAHomoPheRSC(Fluorescein)-NH2 (SEQ ID NO 17) with excitation 485 nm and emission 530 nm. The substrate was diluted from a 10 mM stock in DMSO to 10 μM in assay buffer containing 20 mM Tris, pH 8.0, and 0.0006% Brij-35. Reactions were run in a 96-well black-coated plate with either ADAM10 prodomain (10 nM-1.0 μM) alone or with enzyme. Concentrations of enzyme ranged from 0.5-2.0 nM for TACE and 5-15 nM for ADAM10. For assays with TACE and ADAM8 prodomain, the range of concentrations varied from 1-4.7 μM.
(§2) Calculation of inhibition constants. The amount of activity was calculated by subtracting the ADAM 10 prodomain control from the ADAM 10 prodomain with enzyme. All inhibition assays were performed at room temperature and the data fit to the following equation using Sigma Plot software:
(§3) [formula] where If is fractional inhibition, I is the inhibitor concentration and Ki is the inhibition constant.
Wild type ADAM 10 prodomain (23-213) was tested to determine the mode of inhibition of ADAM 10 protein. ADAM 10 protein was diluted 1:100 in buffer 25 mM Tris pH 8, 0.0006% Brij-35 and then 10 μl was added to 88 μl of substrate (20-100 μM), Dabcyl-LAQAHomoPheRSC(Fluorescein)-NH2 with excitation 485 nm and emission 530 nm. Prodomain, 2 μl, in 25 mM Tris, pH 8, 100 mM NaCl, 10% glycerol, 0.1% mercaptoethanol, and 50 μM CaCl2 was added to substrate before addition of enzyme. The final concentration of prodomain ranged from 17-170 nM. The fluorescence vs time was plotted, and slopes were taken from straight line fits of initial velocities. The reciprocal of the velocities was plotted vs the reciprocal of substrate squared since the normal Lineweaver Burke plot gave curved lines. The initial velocities vs substrate concentrations were fit as a family of curves to several allosteric models.

TACE (human) Cat/Dis = molecular target: T2, TACE (human) Cat/Dis (Homo sapiens, UniProt P78536); assay: Inhibition assay with TACE catalytic/disintegrin construct, fluorescent substrate; type: biochemical
T2 construct: containing the catalytic/disintegrin domains; purchased R & D Systems (Minneapolis, Minn., USA)
T2 sequence (P78536 215-671 limits assumed): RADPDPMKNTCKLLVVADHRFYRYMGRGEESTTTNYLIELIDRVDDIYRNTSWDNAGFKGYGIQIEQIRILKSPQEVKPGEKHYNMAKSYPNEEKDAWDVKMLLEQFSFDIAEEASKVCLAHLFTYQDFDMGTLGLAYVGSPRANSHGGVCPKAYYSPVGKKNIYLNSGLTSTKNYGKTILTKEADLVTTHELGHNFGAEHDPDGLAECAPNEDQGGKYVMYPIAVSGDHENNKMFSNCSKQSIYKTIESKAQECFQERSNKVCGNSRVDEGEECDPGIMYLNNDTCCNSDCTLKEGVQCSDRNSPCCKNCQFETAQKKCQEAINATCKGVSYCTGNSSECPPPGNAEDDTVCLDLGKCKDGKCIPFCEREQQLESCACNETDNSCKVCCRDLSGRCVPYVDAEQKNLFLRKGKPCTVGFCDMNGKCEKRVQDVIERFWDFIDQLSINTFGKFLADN
Protocol: as §1, §2, §3

TACE (human) Cat = molecular target: T3, TACE (human) Cat (Homo sapiens, UniProt P78536); assay: Inhibition assay with TACE catalytic domain, fluorescent substrate; type: biochemical; details: at 3.5 μM
T3 construct: TACE catalytic domain, Marcos Milla, University of Pennsylvania; donated by Marcos Milla, University of Pennsylvania
T3 sequence (P78536 223-474 limits assumed): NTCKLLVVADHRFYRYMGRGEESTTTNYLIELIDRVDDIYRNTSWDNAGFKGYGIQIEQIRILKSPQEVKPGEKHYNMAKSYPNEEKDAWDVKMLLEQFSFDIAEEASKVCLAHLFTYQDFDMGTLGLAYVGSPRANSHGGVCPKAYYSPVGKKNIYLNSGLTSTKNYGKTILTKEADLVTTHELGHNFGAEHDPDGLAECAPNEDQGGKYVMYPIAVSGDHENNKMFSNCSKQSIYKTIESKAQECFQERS
Protocol: as §1, §2, §3

[1] = molecular target: T4, ADAM 8 (mouse) catalytic domain (Mus musculus, UniProt Q05910); assay: Inhibition assay with ADAM 8 catalytic domain; type: biochemical; details: at 1.7 μM
T4 construct: The ADAM 8 catalytic domain was expressed and purified from E. coli as described (22); made in house; host or cells: E. coli
T4 sequence (Q05910 196-395 limits assumed): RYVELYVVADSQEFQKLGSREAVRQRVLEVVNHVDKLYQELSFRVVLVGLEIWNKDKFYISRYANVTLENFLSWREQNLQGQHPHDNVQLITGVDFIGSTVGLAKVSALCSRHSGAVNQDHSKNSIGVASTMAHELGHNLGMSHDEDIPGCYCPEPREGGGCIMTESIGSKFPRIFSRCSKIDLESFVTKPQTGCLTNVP
Protocol: Inhibition assays with ADAM 8. The ADAM 8 catalytic domain was expressed and purified from E. coli as described (22). A substrate based on the L-selectin cleavage site, Dnp-INorIeuQKLDKSFSMIKE-NH2 (SEQ ID NO 20), was used to monitor enzyme activity with a fluorescamine assay. From a concentrated 50 mM solution in DMSO, the substrate was diluted 1:500 in 25 mM HEPES, pH 8.0, 0.0006% Brij-35. To 100 μl of diluted substrate was added either 5 μl of buffer (Tris, pH 8.0, 150 mM KCl) or 5 μl of ADAM10 prodomain (1-10 μM). Zero time points were taken by diluting 12.5 μl of the reaction mixture into 100 μl of fluorescamine buffer (50 mM HEPES, pH 8.0, 0.2 M NaCl, 0.01 M CaCl2, 0.01% Brij-35) in a 96-well black-coated plate. Before measuring fluorescence, 3 μl of a 1% solution of fluorescamine in DMSO was added to each well. The plate was allowed to incubate for 10 min in the dark before measuring fluorescence (excitation wavelength at 390 nm, emission wavelength at 485 nm). For assays with TACE and ADAM8 prodomains, a fluorescent substrate was used to monitor activity at concentrations of prodomains ranging from 1-4.7 μM.
Calculation of inhibition constants. The amount of activity was calculated by subtracting the ADAM 10 prodomain control from the ADAM 10 prodomain with enzyme. […]

MMP 1, 2, 3, 9, 13, 14 = assay: Inhibition assays with MMPs; type: biochemical; details: 3 μM prodomain
Protocol: Inhibition assays with MMPs. The fluorescent substrate Dabcyl-GPLGMRGC (Fluorescein)-NH2 (SEQ ID NO 18) (10 μM) in assay buffer containing 50 mM Tris, pH 7.5, 150 mM NaCl, 2 mM CaCl2, 5 μM ZnSO4, and 0.01% Brij-35 was used to monitor enzyme activities. MMPs 1, 2, 3, 9, 13, and 14 (0.1-20 nM) were incubated with substrate in the absence or presence of prodomain (3-30 μM). Fluorescence intensities were measured every 3-5 minutes at an emission wavelength of 530 nm (excitation 485 nm).
as §2, §3

CD23 shedding in B cells = assay: CD23 shedding in B cells, flow cytometry; type: cell-based; details: 1-5 μM, 12 hr
Protocol: The CD23 sheddase activity of ADAM 10 protein was further tested in a B-cell assay. B-cells were cultured for 12 hr in the presence or absence of IL-4 (100 ng/ml), wild type C-terminal His tagged ADAM 10 (23-213) (1-5 μM) or match diluent control (25 mM Tris-HCl pH 8, 100 mM NaCl, 10% glycerol, 0.1% β-mercaptoethanol). Cells were stained for expression of surface antigens following washing with 1% BSA/PBS. Cells were incubated for 30 minutes at 4° C. in the dark with fluorochrome-conjugated mAbs: APC-CD19 (CALTAG, Burlingame, Calif.), CD23-PE, mlgG1-PE (BD Biosciences) before washing to remove unbound mAb. Cells were resuspended in PBS and immediately analyzed with the use of the FACS Calibur (BD Biosciences). The software program FlowJo (Ashland, Oreg.) was used to analyze data generated by flow cytometry.

Dabcyl-LAQAHomoPheRSC(Fluorescein)-NH2 ({Dabcyl′}-LAQA[hPhe]RSC(Fluorescein)-NH2) [fluorescent substrate for TACE and ADAM10 assays, reference compound]
binding constant, Ks for substrate (ADAM 10 (human) Cat/Dis; fit to pure competitive allosteric model): 16 ± 4.6 µM

B1: Pro ADAM 17 (mouse): prodomain of mouse TACE (ADAM 17), residues 18-214, His-tagged, expressed in E. coli (protein)
chain: PRPPEEAGSGSHPRLEKLDSLLSDYDILSLANIQQHSIRKRDLQSATHLETLLTFSALKRHFKLYLTSSTERFSQNLRVVVVDGKEESEYSVKWQNFFSGHVVGEPDSRVLAHIGDDDVTVRINTDGAEYNVEPLWRFVNDTKDKRMLVYKSEDIKDFSRLQSPKVCGYLNADSEELLPKGLIDREPSEEFVRRVKR
modifications: left off: small tags and cut ends
notes: prodomain of mouse TACE (ADAM 17), residues 18-214, His-tagged, expressed in E. coli
inhibition of ADAM 10 (human) Cat/Dis (ADAM 10 (human) Cat/Dis; at 3.5 μM): 11% at 3.5 μM | inhibition of TACE (human) Cat/Dis (TACE (human) Cat/Dis; at 3.5 μM): 0% | inhibition of respective enzyme (TACE) by its prodomain (TACE (human) Cat/Dis; micromolar concentrations): did not inhibit | inhibition of TACE (human) Cat (TACE (human) Cat): 37% | inhibition of ADAM 8 (mouse) Cat [1]: 17% at 1.7 μM

B2: wt ProADAM 10 23-213 (C-terminal His tag): wild type mouse ADAM 10 prodomain, amino acids 23-213, C-terminal His tag, expressed in E. coli (protein)
chain: NPLNKYIRHYEGLSYNVDSLHQKHQRAKRAVSHEDQFLLLDFHAHGRQFNLRMKRDTSLFSDEFKVETSNKVPDYDTSHIYTGHIYGEEGSFSHGSVIDGRFEGFIKTRGGTFYIEPAERYIKDRILPFHSVIYHEDDINYPHKYGPQGGCADHSVFERMRKYQMTGVEEGARAHPEKHAASSGPELLRKKHHHHHH
mode of inhibition of ADAM 10 protein (ADAM 10 (human) Cat/Dis; initial velocities fit to allosteric models): pure competitive | inhibition of matrix metalloproteinases 1, 2, 3, 9, 13 and 14 (MMP 1, 2, 3, 9, 13, 14): not inhibited | inhibition of shedding in B cells stimulated with IL-4 (CD23 shedding in B cells; IL-4 100 ng/ml, FIG. 2D): able to inhibit shedding | inhibition of shedding in B cells (CD23 shedding in B cells; without IL-4, FIG. 2C): able to inhibit shedding

B3: wt ProADAM 10 23-213 (N-terminal His tag): wild type mouse ADAM 10 prodomain, amino acids 23-213, N-terminal His tag, expressed in E. coli (protein)
chain: NPLNKYIRHYEGLSYNVDSLHQKHQRAKRAVSHEDQFLLLDFHAHGRQFNLRMKRDTSLFSDEFKVETSNKVPDYDTSHIYTGHIYGEEGSFSHGSVIDGRFEGFIKTRGGTFYIEPAERYIKDRILPFHSVIYHEDDINYPHKYGPQGGCADHSVFERMRKYQMTGVEEGARAHPEKHAASSGPELLRKK
modifications: left off: small tags and cut ends
notes: wild type mouse ADAM 10 prodomain, amino acids 23-213, N-terminal His tag, expressed in E. coli
inhibition of matrix metalloproteinases 1, 2, 3, 9, 13 and 14 (MMP 1, 2, 3, 9, 13, 14): not inhibited
